Laboratory results taken from paper PMC2982130 (Molecular Biology of the Cell, 2010).

B1: 125I-labeled recombinant human BMP4 (ligand)
chain: SPKHHSQRARKKNKNCRRHSLYVDFSDVGWNDWIVAPPGYQAFYCHGDCPFPLADHLNSTNHAIVQTLVNSVNSSIPKACCVPTELSAISMLYLDEYDKVVLKNYQEMVVEGCGCR
modifications: 125I (radioiodinated, Chloramine T method)
B2: Recombinant human BMP2 (bone morphogenetic protein 2) (ligand)
chain: QAKHKQRKRLKSSCKRHPLYVDFSDVGWNDWIVAPPGYHAFYCHGECPFPLADHLNSTNHAIVQTLVNSVNSKIPKACCVPTELSAISMLYLDENEKVVLKNYQDMVVEGCGCR

Columns and labels:
cross-linking + co-IP = target: the molecule itself; test: cross-linking + co-IP
[1] = target: T1, Recombinant human BMPRII/Fc chimera protein (human, UniProt Q13873 27-150); test: SPR
T1 sequence: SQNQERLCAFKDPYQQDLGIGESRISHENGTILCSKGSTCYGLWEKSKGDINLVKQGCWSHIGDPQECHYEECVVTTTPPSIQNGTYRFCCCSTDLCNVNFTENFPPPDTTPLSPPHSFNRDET

| Binder | stoichiometry N (cross-linking + co-IP) | Kd [1] [nM] |
| --- | --- | --- |
| B1 | 2 |  |
| B2 |  | 164 |
